The values that follow come from publication PMC6640692, “Canine CD117-Specific Antibodies with Diverse Binding Properties Isolated from a Phage Display Library Using Cell-Based Biopanning” (Antibodies, 2019).

For the assay, the target named is T1, recombinant canine CD117-ECD-human-Fc fused protein (canine, UniProt O97799 28-527).
T1 construct: canine CD117 (c-Kit) extracellular domain, amplified by PCR from a GeneArt-synthesized CD117 template (NP_001003181); The forward primer begins at the ATG start codon (MRGARG), so the secretion signal appears to be in the construct; Dimer through disulfide linkage in the hFc domain (non-reducing SDS-PAGE); also called CD117-hFc; ECD-CD117-hFc; source: CHO-S cells, transient transfection, purified …
Briefly: ELISA; competitive ELISA: plate coated with 1 ug/mL canine CD117-hFc; 50 ng/mL canine SCF-His pre-mixed with serially diluted mAbs (from 40 ug/mL) in 2% MPBS, RT 1 h; bound SCF detected with anti-His HRP. Conditions: both partners purified. On the technique in general: ELISA stands for enzyme-linked immunosorbent assay.

T1 sequence (O97799 28-527): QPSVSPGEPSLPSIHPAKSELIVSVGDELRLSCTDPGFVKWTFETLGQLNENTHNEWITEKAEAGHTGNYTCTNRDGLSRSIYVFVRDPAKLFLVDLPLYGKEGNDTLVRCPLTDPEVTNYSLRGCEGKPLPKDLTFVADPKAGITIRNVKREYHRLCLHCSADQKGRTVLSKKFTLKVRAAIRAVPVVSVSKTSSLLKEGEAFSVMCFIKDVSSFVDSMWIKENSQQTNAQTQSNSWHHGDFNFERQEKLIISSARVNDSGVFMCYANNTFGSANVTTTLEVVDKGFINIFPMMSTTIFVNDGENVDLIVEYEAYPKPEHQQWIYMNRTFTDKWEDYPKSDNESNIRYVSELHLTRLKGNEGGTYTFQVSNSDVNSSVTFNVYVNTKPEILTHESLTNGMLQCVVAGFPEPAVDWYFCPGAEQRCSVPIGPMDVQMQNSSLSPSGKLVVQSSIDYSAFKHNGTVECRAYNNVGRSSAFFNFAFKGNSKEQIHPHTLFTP

B1: recombinant canine stem cell factor (SCF)-His (ligand, UniProt Q06220 26-191, looked up)
chain: KGICGKRVTDDVKDVTKLVANLPKDYKIALKYVPGMDVLPSHCWISVMVEQLSVSLTDLLDKFSNISEGLSNYSIIDKLVKIVDDLVECTEGYSFENVKKAPKSPELRLFTPEEFFRIFNRSIDAFKDLETVASKSSECVVSSTLSPDKDSRVSVTKPFMLPPVAA
notes: signal peptide in the construct; canine SCF, secretion signal and the soluble part of the extracellular domain, NP_001012753.1 residues 1 to 191; also called canine SCF; SCF-His-tag; source: CHO-S cells, transient transfection, purified from supernatant (HisTrap excel IMAC)
As for B1, the binding result is on record as “binds”.
